Article PMC9352680, “A comprehensive thermodynamic model for RNA binding by the Saccharomyces cerevisiae Pumilio protein PUF4”

Molecular target: T1, PUF4 RNA-binding domain (Saccharomyces cerevisiae, UniProt P25339 537-888)
T1 sequence: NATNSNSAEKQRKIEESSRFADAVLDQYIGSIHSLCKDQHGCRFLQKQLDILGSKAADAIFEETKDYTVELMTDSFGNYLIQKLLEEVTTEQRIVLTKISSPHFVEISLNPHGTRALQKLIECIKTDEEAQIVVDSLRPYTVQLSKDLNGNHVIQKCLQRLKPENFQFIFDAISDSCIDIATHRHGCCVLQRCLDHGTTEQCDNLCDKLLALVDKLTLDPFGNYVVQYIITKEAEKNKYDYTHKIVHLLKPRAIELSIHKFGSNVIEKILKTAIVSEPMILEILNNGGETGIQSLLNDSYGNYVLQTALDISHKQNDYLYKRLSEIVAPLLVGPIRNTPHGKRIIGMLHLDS
Assay: Mg; RNA-MaP; 20 mM Na-HEPES pH 7.4, 30 mM KOAc, 0.75 mM MgCl2, 0.1% Tween-20, 5% glycerol, 0.1 mg/mL BSA, 2 mM DTT; 25 C; 0.0125-409.6 nM protein
Conditions: tags: N-His6-TEV cleaved; C-SNAP kept, Cy3B-labelled; label: tethered on chip by stalled RNA polymerase

B1: Ie_S1_P5E.1_K5.1_C5.1_H5.1_A5.1_F5.1_[+10TTCC]_T5.1 (ssRNA)
RNA: UCUCUUUGUAUUAUUAUUCCUCUCUU
B1 gave a Kd of 4.65 nM.

B2: Ie_S2_P3E.2_K3.1_C3.2_[+-2CCC]_H3.1_A3.1_F3.1_T3.2 (ssRNA)
RNA: UUUGAUUAAUAUGAUAUCGUUCUUUCUCCCCUUGUAUAUAUAUUCUUUCUCGAUAUCAUAUUAAUCUUU
Work on B2 yielded a Kd of 0.969 nM.

B3: Ie_S2_P3E.2_K3.1_C3.2_[+-2CTC]_H3.1_A3.1_F3.1_T3.2 (ssRNA)
RNA: UUUGAUUAAUAUGAUAUCGUUCUUUCUCCUCUUGUAUAUAUAUUCUUUCUCGAUAUCAUAUUAAUCUUU
B3 was tested, and the Kd was 0.846 nM.

B4: Ie_S2_P3E.2_K3.1_C3.2_[+-2CCT]_H3.1_A3.1_F3.1_T3.2 (ssRNA)
RNA: UUUGAUUAAUAUGAUAUCGUUCUUUCUCCCUUUGUAUAUAUAUUCUUUCUCGAUAUCAUAUUAAUCUUU
In the case of B4, the Kd is reported as 1.07 nM.

B5: Ie_S2_P3E.2_K3.1_C3.2_[+-2TCC]_H3.1_A3.1_F3.1_T3.2 (ssRNA)
RNA: UUUGAUUAAUAUGAUAUCGUUCUUUCUCUCCUUGUAUAUAUAUUCUUUCUCGAUAUCAUAUUAAUCUUU
In the case of B5, the Kd is reported as 0.933 nM.

B6: Ie_S1_P5E.1_K5.1_C5.1_H5.1_A5.1_F5.1_[+10TTC]_T5.1 (ssRNA)
RNA: UCUCUUUGUAUUAUUAUUCUCUCUU
Binder B6 has a Kd of 5.81 nM.

B7: Ie_S1_P5E.1_K5.1_C5.1_H5.1_A5.1_F5.1_[+10TCTCT]_T5.1 (ssRNA)
RNA: UCUCUUUGUAUUAUUAUCUCUUCUCUU
Binder B7 has a Kd of 8.17 nM.

B8: Ie_S1_P5E.1_K5.1_C5.1_H5.1_A5.1_F5.1_[+9CCCTT]_T5.1 (ssRNA)
RNA: UCUCUUUGUAUUAUUCCCUUAUCUCUU
B8 was tested, and the Kd was 17.6 nM.

B9: Ie_S1_P5E.1_K5.1_C5.1_H5.1_A5.1_F5.1_[+10TC]_T5.1 (ssRNA)
RNA: UCUCUUUGUAUUAUUAUCUCUCUU
For B9, the Kd was 4.34 nM.

B10: Ib_S2_P3E.1_K3.1_C3.1_H3.1_[A4G]_A3.1_F3.1_[A8T]_T3.1 (ssRNA)
RNA: UUUGAUUAAUAUGAUAUCGUUCUUUCUUGUGUAUUUUCUUUCUCGAUAUCAUAUUAAUCUUU
B10 gave a Kd of 8.99 nM.

B11: Ib_S2_P3E.1_K3.1_C3.1_H3.1_A3.1_[T5C]_F3.1_[T7C]_T3.1 (ssRNA)
RNA: UUUGAUUAAUAUGAUAUCGUUCUUUCUUGUACACAUUCUUUCUCGAUAUCAUAUUAAUCUUU
B11 gave a Kd of 22.4 nM.

B12: Ia_S2_P3E.1_K3.1_C3.1_H3.1_[G2C]_A3.1_F3.1_T3.1 (ssRNA)
RNA: UUUGAUUAAUAUGAUAUCGUUCUUUCUUCUAUAUAUUCUUUCUCGAUAUCAUAUUAAUCUUU
Work on B12 yielded a Kd of 473 nM.

B13: Ie_S1_P5E.1_K5.1_C5.1_H5.1_A5.1_F5.1_[+9TTCCT]_T5.1 (ssRNA)
RNA: UCUCUUUGUAUUAUUUUCCUAUCUCUU
For B13, the Kd was 22.3 nM.

B14: Ie_S1_P5E.1_K5.1_C5.1_H5.1_A5.1_F5.1_[+9TTCC]_T5.1 (ssRNA)
RNA: UCUCUUUGUAUUAUUUUCCAUCUCUU
In the case of B14, the Kd is reported as 19.4 nM.

B15: Ie_S1_P5E.1_K5.1_C5.1_H5.1_A5.1_F5.1_[+9CCTCT]_T5.1 (ssRNA)
RNA: UCUCUUUGUAUUAUUCCUCUAUCUCUU
B15 showed a Kd of 14.3 nM.

B16: Ie_S2_P3E.2_K3.1_C3.2_H3.1_[+1T]_A3.1_F3.1_T3.2 (ssRNA)
RNA: UUUGAUUAAUAUGAUAUCGUUCUUUCUCUUUGUAUAUAUAUUCUUUCUCGAUAUCAUAUUAAUCUUU
Binder B16 has a Kd of 1.11 nM.

B17: Ie_S1_P5E.1_K5.1_C5.1_H5.1_A5.1_F5.1_[+9TCTCT]_T5.1 (ssRNA)
RNA: UCUCUUUGUAUUAUUUCUCUAUCUCUU
With B17 the Kd was 14 nM.

B18: Ie_S1_P5E.1_K5.1_C5.1_H5.1_A5.1_F5.1_[+10TCC]_T5.1 (ssRNA)
RNA: UCUCUUUGUAUUAUUAUCCUCUCUU
Binder B18 has a Kd of 6.07 nM.

B19: Ie_S1_P5E.1_K5.1_C5.1_H5.1_A5.1_F5.1_[+10TT]_T5.1 (ssRNA)
RNA: UCUCUUUGUAUUAUUAUUUCUCUU
In the case of B19, the Kd is reported as 6.42 nM.

B20: Ie_S2_P3E.2_K3.1_C3.2_[+-2CC]_H3.1_A3.1_F3.1_T3.2 (ssRNA)
RNA: UUUGAUUAAUAUGAUAUCGUUCUUUCUCCCUUGUAUAUAUAUUCUUUCUCGAUAUCAUAUUAAUCUUU
In the case of B20, the Kd is reported as 1.07 nM.

B21: Ie_S2_P3E.2_K3.1_C3.2_H3.1_[+1TT]_A3.1_F3.1_T3.2 (ssRNA)
RNA: UUUGAUUAAUAUGAUAUCGUUCUUUCUCUUUUGUAUAUAUAUUCUUUCUCGAUAUCAUAUUAAUCUUU
With B21 the Kd was 1.22 nM.

B22: Ie_S1_P5E.1_K5.1_C5.1_H5.1_A5.1_F5.1_[+9CCCT]_T5.1 (ssRNA)
RNA: UCUCUUUGUAUUAUUCCCUAUCUCUU
B22 gave a Kd of 16.2 nM.
